From US20100322946A1

Experiments:
[1] = target: human VEGF (form not stated) (human) (UniProt P15692); assay: biotin-hVEGF with IgG, free VEGF captured on Avastin
[2] = target: human VEGF165 (human) (UniProt P15692); assay: competition ELISA, hVEGF165 in solution varied
human VEGF165 (human), sequence (P15692 other isoform, or with tags, fused parts or gaps): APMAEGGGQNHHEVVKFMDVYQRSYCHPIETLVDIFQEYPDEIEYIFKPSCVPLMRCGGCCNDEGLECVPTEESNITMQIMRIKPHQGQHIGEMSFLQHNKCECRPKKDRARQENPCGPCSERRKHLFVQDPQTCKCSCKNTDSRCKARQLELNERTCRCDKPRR

IC50 (read off the curve) [1]: 3 nM | IC50 (read off the curve) [2]: 3 nM
Substance: G6 hIgG (antibody)
